This test concerns the target unlabeled F-actin from rabbit skeletal muscle (rabbit, UniProt P68135 1-377).

B1: human cMyBP-C N-terminal domains C0–C1 (domain or fragment)
chain: MPEPGKKPVSAFSKKPRSVEVAAGSPAVFEAETERAGVKVRWQRGGSDISASNKYGLATEGTRHTLTVREVGPADQGSYAVIAGSSKVKFDLKVIEAEKAEPMLAPAPAPAEATGAPGEAPAPAAELGESAPSPKGSSSAALNGPTPGAPDDPIGLFVMRPQDGEVTVGGSITFSARVAGASLLKPPVVKWFKGKWVDLSSKVGQHLQLHDSYDRASKVYLFELHITDAQPAFTGSYRCEVSTKDKFDCSNFNLTV
What is called Kd is the equilibrium constant for the complex coming apart. A lower Kd goes with higher affinity. Molecule B1 yielded a Kd of 32 µM.

B2: human cMyBP-C C0–C2 3SD (S275D, S284D, S304D) (domain or fragment)
chain: MPEPGKKPVSAFSKKPRSVEVAAGSPAVFEAETERAGVKVRWQRGGSDISASNKYGLATEGTRHTLTVREVGPADQGSYAVIAGSSKVKFDLKVIEAEKAEPMLAPAPAPAEATGAPGEAPAPAAELGESAPSPKGSSSAALNGPTPGAPDDPIGLFVMRPQDGEVTVGGSITFSARVAGASLLKPPVVKWFKGKWVDLSSKVGQHLQLHDSYDRASKVYLFELHITDAQPAFTGSYRCEVSTKDKFDCSNFNLTVHEAMGTGDLDLLSAFRRTDLAGGGRRIDDSHEDTGILDFSSLLKKRDDFRTPRDSKLEAPAEEDVWEILRQAPPSEYERIAFQYGVTDLRGMLKRLKGMRRDEKKSTAFQKKLEPAYQVSKGHKIRLTVELADHDAEVKWLKNGQEIQMSGSKYIFESIGAKRTLTISQCSLADDAAYQCVVGGEKCSTELFVKEPPVLITRPLEDQLVMVGQRVEFECEVSEEGAQVKWLKDGVELTREETFKYRFKKDGQRHHLIINEAMLEDAGHYALCTSGGQALAELIVQEKKLEVYQSIADLMVGAKDQAVFKCEVSDENVRGVWLKNGKELVPDSRIKVSHIGRVHKLTIDDVTPADEADYSFVPEGFACNLSAKLHFMEVKIDFVPRQEPPKIHLDCPGRIPDTIVVVAGNKLRLDVPISGDPAPTVIWQKAITQGNKAPARPAPDAPEDTGDSDEWVFDKKLLCETEGRVRVETTKDRSIFTVEGAEKEDEGVYTVTVKNPVGEDQVNLTVKVIDVPDAPAAPKISNVGEDSCTVQWEPPAYDGGQPILGYILERKKKKSYRWMRLNFDLIQELSHEARRMIEGVVYEMRVYAVNAIGMSRPSPASQPFMPIGPPSEPTHLAVEDVSDTTVSLKWRPPERVGAGGLDGYSVEYCPEGCSEWVAALQGLTEHTSILVKDLPTGARLLFRVRAHNMAGPGAPVTTTEPVTVQEILQRPRLQLPRHLRQTIQKKVGEPVNLLIPFQGKPRPQVTWTKEGQPLAGEEVSIRNSPTDTILFIRAARRVHSGTYQVTVRIENMEDKATLVLQVVDKPSPPQDLRVTDAWGLNVALEWKPPQDVGNTELWGYTVQKADKKTMEWFTVLEHYRRTHCVVPELIIGNGYYFRVFSQNMVGFSDRAATTKEPVFIPRPGITYEPPNYKALDFSEAPSFTQPLVNRSVIAGYTAMLCCAVRGSPKPKISWFKNGLDLGEDARFRMFSKQGVLTLEIRKPCPFDGGIYVCRATNLQGEARCECRLEVRVPQ
As for B2, the equilibrium dissociation constant (Kd) was 7 µM.
